Kd, stoichiometry N and stoichiometry N (ratio (dimer:dimer)) data for four substances are collected here from publication doi:10.1101/2022.09.01.506260.

The target in assay [1] is PEAK3^tandem-pS69 peptide pre-complexed with 14-3-3ɣ (human). The assay is described as follows: ITC.
The target of assay [2] is PEAK2^IDR1 (N-terminally truncated PEAK2, residues 802-1406) (human) (UniProt Q86YV5). In words: SEC-MALS.
Assay [3] has as its target PEAK3^tandem-pS69 phosphopeptide (residues 54-74) (human). The assay is described as follows: ITC.
Assay [4] concerns the target full length recombinant PEAK3 (PEAK3^FL) from insect cells (human) (UniProt Q6ZS72). In words: SEC-MALS.

Chain of PEAK2^IDR1 (N-terminally truncated PEAK2, residues 802-1406) (human) (Q86YV5 802-1406): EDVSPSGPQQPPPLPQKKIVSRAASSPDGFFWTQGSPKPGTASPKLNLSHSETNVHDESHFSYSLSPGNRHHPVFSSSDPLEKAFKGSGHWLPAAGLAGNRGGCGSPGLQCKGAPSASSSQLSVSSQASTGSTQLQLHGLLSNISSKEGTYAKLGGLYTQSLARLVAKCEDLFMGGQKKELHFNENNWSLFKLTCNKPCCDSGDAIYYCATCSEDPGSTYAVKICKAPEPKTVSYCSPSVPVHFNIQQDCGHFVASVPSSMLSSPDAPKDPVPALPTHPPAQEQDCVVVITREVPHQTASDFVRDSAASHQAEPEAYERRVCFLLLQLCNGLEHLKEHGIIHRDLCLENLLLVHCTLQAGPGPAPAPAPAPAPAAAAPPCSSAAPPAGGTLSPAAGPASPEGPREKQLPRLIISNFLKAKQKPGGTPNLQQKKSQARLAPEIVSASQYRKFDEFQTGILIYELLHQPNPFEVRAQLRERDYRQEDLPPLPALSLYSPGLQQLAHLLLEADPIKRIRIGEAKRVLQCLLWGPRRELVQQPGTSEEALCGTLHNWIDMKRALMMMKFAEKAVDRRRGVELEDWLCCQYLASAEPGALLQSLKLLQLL
Chain of full length recombinant PEAK3 (PEAK3^FL) from insect cells (human) (Q6ZS72 whole entry): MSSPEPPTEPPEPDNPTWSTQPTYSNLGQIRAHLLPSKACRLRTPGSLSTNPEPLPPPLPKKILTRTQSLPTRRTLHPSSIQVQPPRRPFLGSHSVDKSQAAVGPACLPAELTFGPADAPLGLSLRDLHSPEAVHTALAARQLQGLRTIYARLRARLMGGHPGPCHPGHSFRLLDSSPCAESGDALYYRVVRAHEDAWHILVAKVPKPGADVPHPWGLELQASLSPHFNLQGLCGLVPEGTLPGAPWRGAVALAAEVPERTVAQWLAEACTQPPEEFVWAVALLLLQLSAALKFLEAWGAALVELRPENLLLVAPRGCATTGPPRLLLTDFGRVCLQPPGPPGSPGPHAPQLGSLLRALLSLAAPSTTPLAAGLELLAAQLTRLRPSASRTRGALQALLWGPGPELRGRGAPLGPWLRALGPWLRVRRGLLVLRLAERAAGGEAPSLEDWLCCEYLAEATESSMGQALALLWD
Chain of CrkII NSH3 domain (CrkII^NSH3) (P46108 134-191): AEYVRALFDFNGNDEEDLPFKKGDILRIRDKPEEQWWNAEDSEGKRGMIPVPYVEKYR

On to “CrkII NSH3 domain (CrkII^NSH3) (from UniProt P46108-1 134-191) (domain or fragment)”, for which the equilibrium dissociation constant (Kd) in assay [1] came out at 3.6 µM.

Turning to “full length CrkII, dimer (CrkII^FL dimer) (from UniProt P46108-1 1-304) (natural protein)”, in assay [2], the stoichiometry N was 1 ratio (2:2). Take human 14-3-3γ (natural protein): the Kd in assay [3] is 0.13 µM. Turning to “insect cell derived 14-3-3ε,ζ heterodimer (complex)”, the stoichiometry N (ratio (dimer:dimer)) in assay [4] worked out at 1.
